# In paper PMC11045720, “Denaturing mass photometry for rapid optimization of chemical protein-protein cross-linking reactions” (Nature Communications, 2024):
# B1: L-Glutamate dehydrogenase from bovine liver (enzyme)
# chain: not shown
# notes: L-Glutamate dehydrogenase from bovine liver (Sigma); also called GLDH; source: bought: Sigma (from bovine liver)
# Target: the molecule itself
# Test: cross-linking; formaldehyde 0.05% to 1% (vol/vol) on 1 mg/mL protein, 20 min at room temperature; read by denaturing mass photometry
protein,measurement,value
B1,stoichiometry N,6
